Where no end group is shown, it is not given here. The star is where a group is joined. Dansyl = CN(C)c1cccc2c(S(=O)(=O)*)cccc12
How the values were obtained:
[1] = molecular target: Caco-2 cell membrane (P100) fractions; assay: ELISA on coated Caco-2 P100 fraction, anti-dansyl detection; assay 4, peptide at 25 µg/ml
[2] = molecular target: Caco-2 cell membrane (P100) fractions; assay: ELISA on coated Caco-2 P100 fraction, anti-dansyl detection; assay 7, peptide at 25 µg/ml
[3] = molecular target: Caco-2 cell membrane (P100) fractions; assay: ELISA on coated Caco-2 P100 fraction, anti-dansyl detection; assay 6, peptide at 25 µg/ml
[4] = molecular target: Caco-2 cell membrane (P100) fractions; assay: ELISA on coated Caco-2 P100 fraction, anti-dansyl detection; assay 5, peptide at 25 µg/ml
[5] = molecular target: Caco-2 cell membrane (P100) fractions; assay: ELISA on coated Caco-2 P100 fraction, anti-dansyl detection; assay 8, peptide at 25 µg/ml
[6] = molecular target: Caco-2 cell membrane (P100) fractions; assay: ELISA on coated Caco-2 P100 fraction, anti-dansyl detection; assay 1, peptide at 20 µg/ml
[7] = molecular target: Caco-2 cell membrane (P100) fractions; assay: ELISA on coated Caco-2 P100 fraction, anti-dansyl detection; assay 2, peptide at 50 µg/ml
[8] = molecular target: Caco-2 cell membrane (P100) fractions; assay: ELISA on coated Caco-2 P100 fraction, anti-dansyl detection; assay 3, peptide at 50 µg/ml

Binder	binding to P100 relative to ZElan021 (arbitrary value 1.00) [1]	binding to P100 relative to ZElan021 (arbitrary value 1.00) [2]	binding to P100 relative to ZElan021 (arbitrary value 1.00) [3]	binding to P100 relative to ZElan021 (arbitrary value 1.00) [4]	binding to P100 relative to ZElan021 (arbitrary value 1.00) [5]	binding to P100 relative to ZElan021 (arbitrary value 1.00) [6]	binding to P100 relative to ZElan021 (arbitrary value 1.00) [7]	binding to P100 relative to ZElan021 (arbitrary value 1.00) [8]
K(Dansyl)PGDYNCCGNGNSTG (cysteine pairing not given here) [ZElan091, HAX42 14 mer fragment]	2.02	0.85	1.2	1.37	–	–	–	–
K(Dansyl)SDHALGTNLRSDNAKEPGDYNCCGNGNSTGRKVFNRRRPSAIPT (cysteine pairing not given here) [ZElan021, full length HAX42]	1	1.14	1	1	0.94	1	1	1

Reference: patent US20090238886A1
